Results as given in the supplement of paper PMC10567573.
± gives the standard deviation.

Test: protein stability index of a GFP-peptide fusion (GPS, HEK-293T) (PSI 1-6); higher = more stable
[1] = treatment: DMSO, c terminus: a fixed tail appended
[2] = treatment: MLN4924 1 uM, 8 h, c terminus: a fixed tail appended
[3] = treatment: DMSO, c terminus: native
[4] = treatment: MLN4924 1 uM, 8 h, c terminus: native
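Note: 24-mer peptide tiles fused after GFP, lentivirally expressed, FACS-sorted into six equal bins by GFP/DsRed ratio, decoded by Illumina sequencing, PSI is the read-weighted mean bin number.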

Sequence	protein stability index [1]	protein stability index [2]	protein stability index [3]	protein stability index [4]
QNPKDCSKAKKLVCNINKGCGYGC [FUT8]	3.53 ± 0.1	3.48 ± 0.17		
DQLYRRKKDNHALVRETDELRRNH [ELOA2]	4.53 ± 0.42	4.48 ± 0.43		
YLRCIQSEVSFEGAYGNLKRLYDK [SMG5]	2.61 ± 0.26	2.64 ± 0.34		
AKEKLESFIKNSDSFDKFEFCEPA [PCMTD1]	4.06 ± 0.27	3.96 ± 0.31		
HFDATNLHKQTASDLLDEKEIAKN [FEM1C]	5.38 ± 0.15	5.31 ± 0.29		
VELVNAACNFEPHESFFSLFSDPR [ZER1]	2.45 ± 0.13	2.54 ± 0.2		
KLDFKEKAQAKVGSLDNAHHVPGG [MAP2]	4.73 ± 0.2	4.7 ± 0.16		
PFTPLHIKVKPKRVGIFLDYEAGT [TRIM39]	2.45 ± 0.28	2.67 ± 0.26		
RRFNFDTDRPLLSTLEESVVRICC [SMG5]	2.17 ± 0.25	2.19 ± 0.22		
EDRKLPAPGADVKVHRARKTMPKS [EHMT1]	5.28 ± 0.31	5.19 ± 0.18		
YQQQHEQQKKDLEILHQQNIHQLQ [SASS6]	4.47 ± 0.11	4.6 ± 0.19		
HGPQLPTGIEGNWGRLLEQVGTMA [ZBED2]	3 ± 0.35	3.08 ± 0.24		
MRARDSVYHIECFRCSVCSRQLLP [ISL2]	2.2 ± 0.24	2.22 ± 0.35		
GASSLPTTMNYPLWSQSYEDSSNQ [MAGEA3]	4.42 ± 0.11	4.57 ± 0.15		
AINNLVLQGCSSIGLRLVLEYLYT [KLHL14]	3.15 ± 0.55	3.04 ± 0.31		
MEMYNVIMTVKEDQFSALGLDPCL [SLC6A17]	2.45 ± 0.62	2.26 ± 0.15		
FATQTEELNKQVVSSSEQLQSYQA [KRT33B]	4.75 ± 0.24	4.64 ± 0.17		
ESSSDSGSSDSEEERATRLAELQE [BRD3]	5.5 ± 0.25	5.51 ± 0.063		
AFWSLVTLGSSFIPGEHFWLLLLT [SPNS1]	2.85 ± 1.5	2.91 ± 1.1		
GRYVKENCKPLKSYMLQDSLEHVQ [CLK3]	3.1 ± 0.23	3.08 ± 0.48		
FKKHDADKVGLITLSDWAAAVESV [PPEF2]		2.64 ± 0.46		
RMTISLTVILIESTNEITYGLPIM [CLCN6]	2.98 ± 0.3	3.06 ± 0.092		
CQVGGIEALVRTVLRAGDREDITE [CTNNB1]	3.28 ± 0.46	3.21 ± 0.46		

Sequence	protein stability index [1]	protein stability index [2]	protein stability index [3]	protein stability index [4]
GIIVKDARLNGSVASYILASHNGI [TENT5D]	2.66 ± 0.045	2.189 ± 0.003		
GNYMEAKSVLIPVYGVSKETFLSF [RHOBTB3]	2.69 ± 0.53	2.31 ± 0.34		
TSAITASRSESPPPLSDPKQAKVV [BRD3]	5.24 ± 0.22	5.21 ± 0.077		
NFPQCVLEISDQEVLEWYTAKDFI [EFHC1]	2.51 ± 0.33	2.6 ± 0.45		
SQKGCLALSLLELLGFNLTFVFLA [CLCN6]	3.15 ± 0.42	3.03 ± 0.42		
EVITAAEFHPHHCNTFVYSSSKGT [PPP2R2B]	3.28 ± 0.3	3.35 ± 0.56		
FAQALGCVLYACFILGRLCVPVFA [SOAT2]	3.03 ± 0.6	2.64 ± 0.55		
LDLFAMKPPETSVPVVTPTASTAP [SNAP91]	4.25 ± 0.28	4.48 ± 0.22		
CTPGGTTIYGLHALEQGGLRAATM [PYCR3]	2.36 ± 0.73	2.25 ± 0.72		
LATFSSDWEIQEDSRLMCSSVQKA [CCDC3]	4 ± 0.44	3.9 ± 0.29		
RTKVVKPYSTVDNPVYYGPSDFFI [EFHC1]	2.35 ± 0.22	2.42 ± 0.36		
HTRSITSCCFDPDSQRVASVSLDR [WDR88]	3.53 ± 0.4	3.44 ± 0.39		
SLDISGHMILENCSISKMEEEAGQ [ZER1]	4.66 ± 0.22	4.68 ± 0.22		
FHAYYYCFITLTTIGFGDYVALQT [KCNK9]	3.27 ± 0.29	3.34 ± 0.36		
WGDLLGEDSLAALSSVPSEAQISD [SNAP91]	4.76 ± 0.3	4.71 ± 0.22		
EDSKRWSKMDQLAKELTAEKRLEG [CHGA]	4.97 ± 0.33	5.11 ± 0.26		
PTKDRLEGLLAFKEKRPPRYKGE [AUH]			2.11 ± 0.31	4.4 ± 0.1
TVGFLDEAIQPYRDRLRSRLEALS [TRIM15]	2.66 ± 0.27	2.77 ± 0.39		
VVYVKHQAQIDQYLGLVRTHINAV [RTN1]	2.22 ± 0.82	2.52 ± 0.48		
YETESETESEIESETDFETEPETA [GNAS]	5.2 ± 0.17	5.22 ± 0.15		
QASKLRASKEEKEDWLSHALSRKK [FBF1]	4.5 ± 0.24	4.54 ± 0.26		
VKRKIRDESLCPQHHEALSLFCYE [TRIM39]	2.38 ± 0.11	2.73 ± 0.3		
NGEARQLPEDDGLEQDLQQVMVSG [ARFIP2]	5.36 ± 0.22	5.49 ± 0.2		

Sequence	protein stability index [1]	protein stability index [2]	protein stability index [3]	protein stability index [4]
FRFAPNHTKELEDKVIELHKSHRG [EPB41L3]	2.88 ± 0.58	3.2 ± 0.68		
LIKFQVGLKKLNLHEEEHVLLMAI [VDR]	2.8 ± 0.62	2.73 ± 0.78		
AGPDSWGSDAEQSTSGQPYPTSDQ [LCOR]	5.48 ± 0.23	5.4 ± 0.13		
YYLHPLPAGAEYCSSARHPAWGHC [SCNN1D]	2.12 ± 0.2	2.21 ± 0.12		
KKELEENFEKLRLSLQDQVDTLTF [MTUS2]	3.94 ± 0.64	3.8 ± 0.42		
NLLSPLLTGTESPFDLEQQWQDLM [NFE2L1]	3.12 ± 0.21	3.17 ± 0.041		
FVAFAAKLWSFFIYLLRRQIRTVI [CTDNEP1]	3.29 ± 0.16	3.3 ± 0.31		
FARVKKGADGVMRTMAPEKLLKSM [SNAP91]	2.7 ± 0.18	3.05 ± 0.42		
SNFETYPENDWDTAAPVPQKDLEI [PRKX]	5.03 ± 0.12	5.15 ± 0.2		
EKILRELSEEEEDEEEEEEEEEEG [KCNA4]	5.65 ± 0.2	5.69 ± 0.17		
AVGDRQDGLREQLQAPVPPDSVPS [PBXIP1]	5.33 ± 0.37	5.37 ± 0.18		
GKAYRFLFGFSAVSIMYLVLVLAV [JAGN1]	2.22 ± 0.1	2.12 ± 0.35		
KQDSYEQGDSSQQSLKGHLRNNFQ [ZC2HC1C]	4.69 ± 0.24	4.84 ± 0.11		
ASEAFHWDERGRAAAYSPSEALLY [ANKRD9]	3.37 ± 0.21	3.4 ± 0.4		
NNLEPILEGYISNLRKQLETLSGD [KRT71]	3.07 ± 0.26	3.18 ± 0.35		
DSMEGKRSPYAGLQLGAAKKPPVT [TRIM29]	4.58 ± 0.35	4.52 ± 0.18		
TECEGDIQKNYECANFGDQGITMG [LOXL2]	4.94 ± 0.11	5.04 ± 0.19		
PPHVLISRPSAPFTEASMMMSLTK [ESR2]	3.48 ± 0.084	3.44 ± 0.18		
NKLLLSIIILLELAILGGLVYYKF [VTI1B]	2.96 ± 0.57	2.84 ± 0.49		
DVDITLSSEAFHNYMNAAMVHINR [RTN3]	2.18 ± 0.087	2.32 ± 0.25		
ERITILRGNHESRQITQVYGFYDE [PPP2CA]	2.84 ± 0.13	3.1 ± 0.25		
MLQATAEANNLAAAASAKDIYYNN [ATL3]	3.15 ± 0.18	3.44 ± 0.38		
ISEYEKSLQFDEKCLSIMLAEWEA [RPAIN]	2.34 ± 0.3	2.87 ± 0.33		

Sequence	protein stability index [1]	protein stability index [2]	protein stability index [3]	protein stability index [4]
ESIESYDSCDRLTQSWSSQSSFNS [ETS1]	3.91 ± 0.34	4.1 ± 0.3		
HGLLGSPVRAAASSPVTTLTQTMH [CDC25B]	3.7 ± 0.21	3.79 ± 0.17		
ARVKPPEGYDVVAVYPNAKVELV [PDLIM4]			3.52 ± 0.35	3.65 ± 0.22
GRFKLSIPHTHLLATLDPLALDRE [WDR88]	2.76 ± 0.24	2.76 ± 0.34		
DMELHRMSRMQSKEYPVVPRSTVR [TBX5]	4.35 ± 0.07	4.33 ± 0.15		
STALERPSFLSQTGHGVSRGPSPV [FCHO1]	4.1 ± 0.34	4.28 ± 0.42		
KQESTRPEKKSDQPMCEEHEEERI [TRIM55]	5.73 ± 0.12	5.48 ± 0.26		
GQAEEELIKAKSQARLEEQQRLAH [LRRC45]	5.13 ± 0.26	4.91 ± 0.38		
DRLASNVAKRKSSMPQKFLGDKGL [IKZF1]	3.95 ± 0.11	4.05 ± 0.17		
LEGSHDTANCEACTLGICGQGLKS [RTP4]	5.13 ± 0.25	5.11 ± 0.12		
FIYDCDPFTRRYYKEKFGITDLPR [EFHC1]	2.35 ± 0.37	2.15 ± 0.26		
VTVPSMLSRLLSRKRAVPCGACLT [OR3A1]	2.39 ± 0.38	2.25 ± 0.29		
DVGRYIDHYAAIKKAWDDLKKYLE [FBXO3]	2.31 ± 0.34	2.97 ± 0.52		
IIQFVESGDDKNSNYFSMDSMEGK [TRIM29]	3.46 ± 0.24	3.71 ± 0.29		
LIDHLALRARNYEYLIRLFQEWEA [TCF25]	2.1 ± 0.27	2.43 ± 0.36		
EEERPLPEKEYQRQVWLLFEYPES [KCNA1]	3.33 ± 0.12	3.63 ± 0.28		
SENIKLREENEKLRLENSSLFSQA [CCDC89]	4.65 ± 0.08	4.58 ± 0.2		
KATAAFSNVGTAISKKFGDMSYSI [TPD52L1]	2.72 ± 0.14	2.72 ± 0.13		
ESLPVSLGPESWQQIAMDPEEVKS [BCL2L13]	5.39 ± 0.21	5.27 ± 0.31		
SFDYEQFHELQMQVTASDSGDPPL [PCDHGA10]	4.89 ± 0.21	4.9 ± 0.15		
